Source: patent US20140303084
Changes are numbered by the printed parent chain.

Experiments:
[1] = test system: T1, RRAPGKLQCLASYCWLFATAIA
T1 sequence: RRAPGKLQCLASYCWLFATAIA

[2] = test system: T2, RRaPGKLTCLASYCWLFWTGIA
T2 sequence: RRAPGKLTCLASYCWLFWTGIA

[3] = test system: T3, KL-MeThr-CLASYCWLF
T3 sequence: KLTCLASYCWLF

[4] = test system: T4, RRAPGKLT-Lys-LASY-Glu-WLFWTGIA-COOH
T4 sequence: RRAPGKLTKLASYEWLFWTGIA

[5] = test system: T5, KLTCL-Dpr-SYCWLF
T5 sequence: KLTCLXSYCWLF

[6] = test system: T6, KLT-Orn-LASY-Glu-WLF-CONH2
T6 sequence: KLTXLASYEWLF

[7] = test system: T7, KLTCLASYCWYF
T7 sequence: KLTCLASYCWYF

[8] = test system: T8, GKLQCLASYCWLFWTGIA
T8 sequence: GKLQCLASYCWLFWTGIA

[9] = test system: T9, KLTCLASYCW-MeLeu-F
T9 sequence: KLTCLASYCWLF

[10] = test system: T10, PSIRTVGPGSRSASGKLTCLASYCWLFWTGIA
T10 sequence: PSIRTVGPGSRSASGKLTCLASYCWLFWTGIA

[11] = test system: T11, VSGTGRLTCVASYCWMFQLGSF
T11 sequence: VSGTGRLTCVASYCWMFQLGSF

[12] = test system: T12, RRAPGKLTCLASYCWLF WAGFA ASTLAPAHHQ
T12 sequence: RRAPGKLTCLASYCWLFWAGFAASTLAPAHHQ

[13] = test system: T13, CRRAPGKLQCLASYCWLFWTGIAC
T13 sequence: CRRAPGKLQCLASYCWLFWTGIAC

[14] = test system: T14, AIGTWFLWCYSALCTLKGPARR (retro)
T14 sequence: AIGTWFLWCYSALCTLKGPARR

[15] = test system: T15, RGRSAKLRCLASYCWLFFTVIL
T15 sequence: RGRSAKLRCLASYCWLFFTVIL

[16] = test system: T16, RRAPGKLQCLASYCWLFW
T16 sequence: RRAPGKLQCLASYCWLFW

[17] = test system: T17, RRRRRKLTCLASYCWLFRRRRR
T17 sequence: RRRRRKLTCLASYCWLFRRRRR

[18] = test system: T18, RRAPGKLTCLASYAWCFWTGIA-COOH
T18 sequence: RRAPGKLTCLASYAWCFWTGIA

[19] = test system: T19, PEG4-RRAPGKLTCLASYCWLFWTGIA
T19 sequence: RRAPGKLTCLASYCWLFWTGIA

[20] = test system: T20, RRAPGKLQCLASYCWLFWTG-(1-Nal)-A
T20 sequence: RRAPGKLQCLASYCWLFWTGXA

[21] = test system: T21, PRTTANRRSS RRAPA KLTCLASYCWLFWTGIA
T21 sequence: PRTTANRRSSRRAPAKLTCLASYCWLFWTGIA

[22] = test system: T22, compound 5
T22 sequence: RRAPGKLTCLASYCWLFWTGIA

[23] = test system: T23, RRAPGKLQCLASYCWLFWTGIK
T23 sequence: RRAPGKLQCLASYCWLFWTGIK

[24] = test system: T24, AVVRGQEPTH RRTPG KLTCLASYCWLFWTGIA
T24 sequence: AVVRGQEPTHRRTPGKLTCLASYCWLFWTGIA

[25] = test system: T25, RRAPGCLTALASYCWLFWTGIA-CONH2
T25 sequence: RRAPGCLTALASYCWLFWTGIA

[26] = test system: T26, RRAPAKLQCLASYCWLFWTGIA
T26 sequence: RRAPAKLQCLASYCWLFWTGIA

[27] = test system: T27, RRAPGKLT-Lys-LASY-Asp-WLFWTGIA-CONH2
T27 sequence: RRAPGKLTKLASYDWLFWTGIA

[28] = test system: T28, RRKPGKLQCLASYCWLFWTGIA
T28 sequence: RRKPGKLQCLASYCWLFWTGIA

[29] = test system: T29, RRAPGKLT-Asp-LASY-Lys-WLFWTGIA-CONH2
T29 sequence: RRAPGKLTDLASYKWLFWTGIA

[30] = test system: T30, KLTCLASYCWIF
T30 sequence: KLTCLASYCWIF

[31] = test system: T31, RRAPGKLTCLASYCWLF VTGTA HAPRVAPAPA
T31 sequence: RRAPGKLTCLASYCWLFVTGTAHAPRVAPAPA

[32] = test system: T32, RRAPGKLTCLASYCWLFwTGIA
T32 sequence: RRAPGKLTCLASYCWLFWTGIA

[33] = test system: T33, k-MeLeu-TCLAS-(Y-OMe)-CWLF
T33 sequence: KLTCLASYCWLF

[34] = test system: T34, RRAPGKLTCLASYAWLCWTGIA-COOH
T34 sequence: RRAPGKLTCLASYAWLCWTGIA

[35] = test system: T35, PTDTGPVISG LRAPG KLTCLASYCWLFWTGIA
T35 sequence: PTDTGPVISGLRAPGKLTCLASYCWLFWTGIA

[36] = test system: T36, RRAPGKK(PEG2-Biotin)TCLASYCWLFWTGIA
T36 sequence: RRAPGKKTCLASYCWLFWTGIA

[37] = test system: T37, RRAPGKLTCLASYCWLFWTG-MeIle-A
T37 sequence: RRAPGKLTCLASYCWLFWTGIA

[38] = test system: T38, KLTCAASYCWLF
T38 sequence: KLTCAASYCWLF

[39] = test system: T39, SKQGRPISPDRRAAGKLTCLASYCWLFWTGIA-PEG2-K(PEG2-Biotin)
T39 sequence: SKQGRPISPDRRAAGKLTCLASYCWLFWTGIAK

[40] = test system: T40, (KLTCLASYCWLFG)2═N-O-(CH2)3-O-N═
T40 sequence: KLTCLASYCWLFG

[41] = test system: T41, PRIRTVGPGSRSASGKLSCLASYCWLFWTGIA
T41 sequence: T10 sequence with S2R, T18S

[42] = test system: T42, KLTCQASYCWLF
T42 sequence: KLTCQASYCWLF

[43] = test system: T43, KLT-Dap-LASY-Glu-WLF
T43 sequence: KLTXLASYEWLF

[44] = test system: T44, RR-MeAla-PGKLTCLASYCWLFWTGIA
T44 sequence: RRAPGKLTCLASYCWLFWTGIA

[45] = test system: T45, rRAPGKLTCLASYCWLFWTGIA-PEG16-Lys(PEG2-Biotin)-PEG16-CNPRGD-Tyr(OEt)-RC
T45 sequence: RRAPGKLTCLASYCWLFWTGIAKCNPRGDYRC

[46] = test system: T46, GRAMAAEPWP RQAPG KLTCLASYCWLFWTGIA
T46 sequence: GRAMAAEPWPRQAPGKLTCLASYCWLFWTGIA

[47] = test system: T47, QAKMLKLTCLASYCWLFWVTRS
T47 sequence: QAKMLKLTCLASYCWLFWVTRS

[48] = test system: T48, RRAPKKLQCLASYCWLFWTGIA
T48 sequence: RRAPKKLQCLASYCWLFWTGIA

[49] = test system: T49, RRAPGKLT-Asp-LASY-Orn-WLFWTGIA-CONH2
T49 sequence: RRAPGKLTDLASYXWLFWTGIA

human Factor IXa was tested, and the Vmax, FXa generation assay [1] was over 3, the “Vmax, FXa generation assay; (++) means 1-2” value (“Vmax … (++) means 1-2” for short) [2] was “(++)” and the “Vmax … (++) means 1-2” value [3] was “(++)”. The “Vmax … (++) means 1-2” value [4] was “(++)”, the “Vmax … (++) means 1-2” value [5] was “(++)” and the “Vmax … (++) means 1-2” value [6] was “(++)”. The Vmax, FXa generation assay [7] was over 2, the Vmax, FXa generation assay [8] was over 2 and the Vmax, FXa generation assay [9] was over 2. The Vmax, FXa generation assay [10] was over 3, the “Vmax … (++) means 1-2” value [11] was “(++)” and the Vmax, FXa generation assay [12] was over 2. The Vmax, FXa generation assay [13] was over 2, the “Vmax … (++) means 1-2” value [14] was “(++)” and the Vmax, FXa generation assay [15] was over 2. The Vmax, FXa generation assay [16] was over 2, the Vmax, FXa generation assay [17] was over 2 and the Vmax, FXa generation assay [18] was over 2. The Vmax, FXa generation assay [19] was over 3, the Vmax, FXa generation assay [20] was over 2 and the Vmax, FXa generation assay [21] was over 3. It also gave a KM (nM) of hFIXa for FX [22] of 11 nM, a Vmax, FXa generation assay with hFIXa [22] of over 2 and a kcat (min^-1) of hFIXa for FX, compound at 1 µM [22] of 0.0179 min⁻¹. It also gave a Δ KM (Km compound/Km buffer) [22] of 0.14, a Δ kM of FIXa, FXa generation assay [22] of 0.14 and a Δ kcat of FIXa, FXa generation assay [22] of 199 fold. The “Vmax … (++) means 1-2” value [23] was “(++)”, the Vmax, FXa generation assay [24] was over 3 and the “Vmax … (++) means 1-2” value [25] was “(++)”. The Vmax, FXa generation assay [26] was over 2, the “Vmax … (++) means 1-2” value [27] was “(++)” and the Vmax, FXa generation assay [28] was over 2. For the same substance, the Vmax, FXa generation assay [29] was over 2, the Vmax, FXa generation assay [30] was over 2 and the Vmax, FXa generation assay [31] was over 3. The “Vmax … (++) means 1-2” value [32] was “(++)”, the Vmax, FXa generation assay [33] was over 3 and the Vmax, FXa generation assay [34] was over 0.5. The “Vmax … (++) means 1-2” value [35] was “(++)”, the Vmax, FXa generation assay [36] was over 2 and the Vmax, FXa generation assay [37] was over 2.3. For the same substance, the “Vmax … (++) means 1-2” value [38] was “(++)”, the “Vmax … (++) means 1-2” value [39] was “(++)” and the Vmax, FXa generation assay [40] was over 3. The Vmax, FXa generation assay [41] was over 3, the “Vmax … (++) means 1-2” value [42] was “(++)” and the “Vmax … (++) means 1-2” value [43] was “(++)”. It also gave a Vmax, FXa generation assay [44] of over 3, a Vmax, FXa generation assay [45] of over 3 and a Vmax, FXa generation assay [46] of over 2. For the same substance, the Vmax, FXa generation assay [47] was over 2, the “Vmax … (++) means 1-2” value [48] was “(++)” and the Vmax, FXa generation assay [49] was over 2.
